Source: US20160319016A1 (GOVERNMENT OF THE UNITED STATES OF AMERICA AS REPRESENTED …, published 2016)

Molecular target: T1, CMG2 (UniProt P58335 34-489, limits assumed)
T1 construct: whole, on cells; also called ANTXR2; CHO/CMG2
Experiment: flow cytometry on CHO/CMG2 cells

T1 sequence (P58335 34-489 limits assumed): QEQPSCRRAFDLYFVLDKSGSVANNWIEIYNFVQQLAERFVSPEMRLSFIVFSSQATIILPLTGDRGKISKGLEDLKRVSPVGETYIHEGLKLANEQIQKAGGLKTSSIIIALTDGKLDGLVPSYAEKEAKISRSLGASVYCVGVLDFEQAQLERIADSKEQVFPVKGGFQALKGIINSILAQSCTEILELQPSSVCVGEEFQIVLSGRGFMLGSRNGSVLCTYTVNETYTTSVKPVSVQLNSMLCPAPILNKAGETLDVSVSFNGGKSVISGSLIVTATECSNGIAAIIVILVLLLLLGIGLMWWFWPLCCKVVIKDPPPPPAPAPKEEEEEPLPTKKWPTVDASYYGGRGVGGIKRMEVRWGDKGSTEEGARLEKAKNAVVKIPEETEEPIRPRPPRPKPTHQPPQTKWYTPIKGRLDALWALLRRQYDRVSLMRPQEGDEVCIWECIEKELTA

B1: AF334 anti-TEM8 monoclonal antibody (antibody, V domains shown)
VH: QVKLEESGAELVRPGVSVKISCKGSGYTFTDYAMHWVKQSHAKSLEWIGVISTYFGDATYNQKFKGKATMTVDKSSSTAYMELARLTSEDSAIYYCAREDYVPFAYWGQGTLVTVSA
VL: DIVMTQTPPSVPVTPGESVSISCRSSKSLLHSNGNTYLYWFLQRPGQSPQLLIYRMSNLASGVPDRFSGSGSGTAFTLRISRVEAEDVGVYYCMQHLEYPFTFGSGTKLEIKR
binding result: no binding
